# Assay results published in the DeepSol protein solubility set.
# Assay: soluble on expression in E. coli; label from the status in PepcDB or PDB records
row,Sequence,soluble on expression in E. coli
1,MSLSNSLLPPNASGLERDIEQVIVQSTDLPIRIKDLWNPYSCHLSLLPWLAWALSVDEWDDRWPEHIKRQVVQDSFDVHRFKGTPYAVQKALDSLNIKTHLREWWEPDGSQEPGTMTVVALINENLTDDDNGLITEAMLEQVTRVIHTAKRGVIHFDVELGISLDETLGFSGAIGPSIAEIDFSSDFLPIVPEKGSADMAFSAALYGIGSADFLADMSGVVPDESSSHVFVCGGLAGISASWLEFEGDLEGHHHHHH,soluble
2,MGSDKIHHHHHHMSSCGKNENPQEMNRRKFLKVFGGGAVASSAALYGCAPKNEPGAAVALGEVPTDKMTYRQHPTNGDKVSILGYGCMRWPLKQGSDGKDQIDQEAVNRLVDYAIEHGVNYFDTSPVYVQGMSEKATGIALARHPRNSYYLATKLSNFQNYTRENSLAMYRQSFRDLQTDYLDYYLLHSIGGGNGIELFNDRYINNGMLDFLVKEREAGRIRNLGWSFHGDVKVFDYVLDMGVKWDFVQIQLNYLDWKHASGRNVNADYLYGELEKRGIPAVIMEPLLGGRLSNVPDHIVARLKQQRPENSVASWAFRFAGSPDGVLTVLSGMTYMEHLQDNIRTYSPLIPVTDEEKDFLEETAQLMMKYPTIPCNDCKYCMPCPYALDIPGILLHYNKCVNEGNVPKSAQDENYAKARRAFLVGYDRSVPKLRQANHCTGCEQCNPHCPQGIDIPKEMQRIDKFVEELKVNG,not soluble
3,MSLRKIIPINNNWYFKADYEEGYEKVDDLRSFENVNLPHTNIELPYNYFDEKMYQIKSCYKYPLHISEKYRDKVIYIHFEGVMAYAQVYLNGLYIGEHKGGYTPFDIRIDEVYDWKKELNMLTVVVDSTERSDIPPKGGQIDYLTYGGIYREVSLGIYDDVFIKNIKVETHGIYDNEKSLNLIVHLENLNHQSGNVKFKVKINDKNGKEVFYKEFNTYLDAVKDVYSFNIENLKDIKLWDVDNPNLYEIKVGMKINNFSDEYDNKFGFREAVFKPDGFYLNGRKLKLRGLNRHQSYPYVGYAMPRRVQEKDAEILKNELHLNIVRTSHYPQSKHFLNKCDELGLLVFEEIPGWQYIGNSEWKKVAEQNLREMITRDWNHPSIILWGVRINESQDDDAFYKNMNKIAHEIDPTRQTGGVRYITNSSFLEDVYTFNDFIHDGINKPLRKQQEVTGLEHNVPYLVTEYNGHMYPTKRFDNEERQMEHCLRHLRIQNASYLDDSISGAIGWCAFDYNTHKDFGSGDRICYHGVMDMFRLPKFASYVYKSQVSPDIEPILEPVTFWARGERSIGGVIPLIIFTNCDYIELQYGNKTKIDNIYPNRDAYKGIPYPPIIIDYDIVKPEMIGAWGMVWEDLTLKGFYKGNKVIERKFSREPIPTYLYVVPDDTILSATQKDATRIVVKILDQYGNLLPFINEVIKIEIEGPAKLQGPNEVALIGGEGHHHHHH,soluble
4,GRAGGRTLGEQWKEKLNAMGKEEFFSYRKEAILEVDRTEARRARREGNKVGGHPVSRGTAKLRWLVERRFVQPIGKVVDLGCGRGGWSYYAATMKNVQEVRGYTKGGPGHEEPMLMQSYGWNIVTMKSGVDVFYKPSEISDTLLCDIGESSPSAEIEEQRTLRILEMVSDWLSRGPKEFCIKILCPYMPKVIEKLESLQRRFGGGLVRVPLSRNSNHEMYWVSGASGNIVHAVNMTSQVLIGRMDKKIWKGPKYEEDVNLGSGTRAVGK,soluble
5,MRGSHHHHHHTDPALRAPKSVIIPAGSSAPLAPFVPGTLADGVVYVSGTLAFDQHNNVLFADDPKAQTRHVLETIRKVIETAGGTMADVTFNSIFITDWKNYAAINEIYAEFFPGDKPARFCIQCGLVKPDALVEIATIAHIAKGLCGR,soluble
6,MCTALSPKVRSGPGLSDMHQYSQWLASRHEANLLPMKEDLALWLTNLLGKEITAETFMEKLDNGALLCQLAETMQEKFKESMDANKPTKNLPLKKIPCKTSAPSGSFFARDNTANFLSWCRDLGVDETCLFESEGLVLHKQPREVCLCLLELGRIAARYGVEPPGLIKLEKEIEQEETLSAPSPSPSPSSKSSGKKSTGNLLDDAVKRISEDPPCKCPNKFCVERLSQGRYRVGEKILFIRMLHNKHVMVRVGGGWETFAGYLLKHDPCRMLQISRVDGKTSPIQSKSPTLKDMNPDNYLVVSASYKAKKEIKLEHHHHHH,not soluble
7,MYSTLEQLTKHPVFYHFAEISKIPRGSGNEKEISDYLVGFAKERNLEVIQDEALNVIIKKEATTGYENVPAIIIQGHMDMVCEKNQATVHDFEKDPIELRIIGDMLYANQTTLGADNGIAVAYALALLDSKEIPHPALEVVITTEEETTMGGAFAIDPNHFEGKIFINIDSEEDHKLLVSSAGGAKAVETIPVIWDETPANMDAYRLYVGGLKGGHSGMEIDKQRGNANKVLGRVLRDLSAHTEFNISEVHGGLKTNAIPRESVATLLIRTEDVGQVEEKLESWTRVLQEEMRAVDPDVHVTLTKLDETVEKVFAQETQKQLISSLFLIPNGIQSMSMDIKGLVESSTNLGVIETLQDEIKLRNEVRSSVSSLKQHVAEEIKYIAELVGATFEIESEYPEWPYNPNSQIRNLFEKVHQEKYNKEIEIFAVHAGIECSAFVQKMPELDAISFGPDIFNVHTPDEHISISSVVNNWGFFIDVMKGTKELAK,not soluble
8,KKKPLIGMVHLKPLPGSYHYNDNFDDIVDFAIKEAKKLEEAGFDAVMIENFGDAPFKKEADKITIASMAVIAKAIKEEVSLPLGINILRNDAIGAYSIAYVVKADFIRVNVLSGVAFTDQGIIEGKAYELAKLKKLLPSKIKVFADVHVKHAYHFIDFESSLLDTVERGLADAVIISGKRTGKEVDIEKLKLAKELVDVPVIVGSGTNYNNLRILWSYADGFIIGTWIKKDGKANNEIDIDRAKKIVNLANKLKM,not soluble
9,MSSQSSSADGKVTLKFFHRWPKEPEKSYFEEVVKEFEKDHPDIDIQIEAVLNDSYKDKIKVMLGTTSPPDIYFSWSDEFAFKFIRGNKALDLSSYYKNDTDWSSQLVQSQITPFTYENKQYGVPWQMDAKSFFYNKDIFQKLNLDPPKTWDELIDVSKKLKEHGYTPISFGTKATWTISHYIGTLNQRMVDEKTREKDYNAKTGEFTDEGYVKALEKLQELMPYFNKHVNSVDHEYVRQQFKSGKSAMIYAETAEIKLVEPVNLGMFPFPEISGQKGSSEALTGAPEGFMISSRTKHPKEAMEFLQFLTSKRMGEKLVKDVGKYSAVQGTATEENATAIQREAVQHIVDAKSMVPWFDMDVDVEVADAYLTGVQQMLGGDMTPQQVMKAVQKAAKQVRASAELEHHHHHH,soluble
10,MKSRIVYGPILSRRLGRSLGIDVIKNTGSKKNCNYDCIYCQLGHVELKLGSPEDVKEAVTPKEVSESFEKFYKDVEGLDYITFSGTCEPSLNLSLGEMIQSIREISGVPVCVITNSSLMGREDVRKNLSQADLVVATLVSGIEKTWRKIHRPAPCINFQEIIEGLRELAKAGDGKKLALEVMFLESETGEPLNSTDEEVDCLIKTIRYICPDEIEVLTISRPPAEKWVKPVSEERLREIADRFISEFGAEKVRLVLKGKKKKAKVLHRDLEEEVYALLLRRPCTFEQTWQGLSIDPESLRPVLEKLLAEGKIEEIGSKNSVYYRAK,not soluble
11,MLAMVNKVLDWIRSLFWKEEMELTLVGLQNSGKTTFVNVIASGQFTEDMIPTVGFNMRKITKGNVTIKLWDIGGQPRFRSMWERYCRGVNAIVFMVDAADEEKLEASRNELMQLLDKPQLDAIPVLVLGNKKDLPGALDERQLIERMNLSSIQNREICCYSISCKEKENIDITLQWLIDHSKAQR,not soluble
12,MRNIAEAYFQNMVETATPLEQIILLYDKAIECLERAIEIYDQVNELEKRKEFVENIDRVYDIISALKSFLDHEKGKEIAKNLDTIYTIILNTLVKVDKTKEELQKILEILKDLREAWEEVKKKVHHHHHH,soluble
13,MSLNMKVLITASSRGIGFNLAKELLNKGHEVTITSSNIRNIENAYKELRELGTVHYFQADLSSKEDIKRMVKDAWDAMGRIEALIWNAPNVKCEPCMVHEARYRDWLEAALLHLVSPGYITTLLIQAWLEKKIKGVLIYLSSASVLEPMPPLLLADTARAGLVQLTKGITRAYGGKGIRAYVVLLGSFDTPGARENLAKIAEERGMSLEEIWRKEVIERTPLKRTGKWSELGALIDFLLSENAEYMMGSTILFDGAMTRGVNEGHHHHHH,not soluble
14,MGSDKIHHHHHHMNLKLDHIIHYLHQLESFKFPGEILELQNGGRHHHLGTFNQIAPIKNSYIELLDVENESKLSNIAKTEEGRVSFATKIVQDHFKQGFKGICFRTKDINQVKSTLENRGVDVIGPIDMERENKKGHQIRWRLLYIANPDYTVKPPFFIEWDNNKKQNLSQIHNFNLSSFKIKEVIITSTQRETTVSLWKEWYNLKIVNETATSTDLKLETDEVIYKIEDGKDSGFHTLIMTDINATAPYSIFIRGAKYRFEPPN,not soluble
15,MLLSSCQSLFSPAYQSTLRPSDNPQTVEQVQKNDPRAQMGAREHPRIVASYGGEYRDAKTERLVARIAGALTAVSENPQQSYRITILNSPAINAFALPGGYLYVTRGLLALANDASEVAAVLSHEMGHVTANHGIERQRREEAEVIASRVVAEVLSSDLAGKQALARGKLRLAAFSRQQELQADVIGVRMLGEAGYDPYASPRFLDSMAAYARFSSADPENDQSLDFLSSHPNTPQRIELARRHARAFGQEGQVGDRGRDWFLDGIDGLLYGDSPQEGYVRGQTFLHGTLGIRFDVPEGFVIDNKVEAVLATGPGDMAIRFDGVADPKQTSLANYLTSGWVAGLLPETVKETQINGLEAATARASADKWDFDVTVIRVGQQIFRFLTAVPKGNTQLDSIANVLRTSFRKMTPQEIASLKPLRVRVVTVKPGETVATMAARMMGTERKLDMFRMINAMSATATLQPGQRVKIISELEHHHHHH,not soluble
16,MISTANITQQFGAKPLFENISVKFGEGNRYGLIGANGCGKSTFMKILSGELEPTGGNVSYDPNERVAKLNQDQFAYEEFTVIDTVIMGHKELWEVKQERDRIYSLPEMSEEDGMKVADLEVQFAEMDGYMAEAKAGELLLAVGIPMEQHFGLMSEVAPGWKLRVLLAQILFADPDIMLLDEPTNNLDMDTIRWLEDTLNARNCTMIIISHDRHFLNSVCTHMADLDYGELRVYPGNYDEYMTAASQARERLLSDNAKKKAQIAELQTFVARFSANASKAKQATSRAKQIDKIKLDEVKASSRQNPFIRFEQSKELFRNA,not soluble
17,GAQNEKNMYSYKKIGNKYIVSINNHTEIVKALNAFCKEKGILSGSINGIGAIGELTLRFFNPKTKAYDDKTFREQMEISNLTGNISSMNEQVYLHLHITVGRSDYSALAGHLLSAIQNGAGEFVVEDYSERISRTYNPDLGLNIYDFER,soluble
18,MGSDKIHHHHHHPEQQVQQFAQLPVGFKNMGNTCYLNATLQALYRVNDLRDMILNYNPSQGVSNSGAQDEEIHKQIVIEMKRCFENLQNKSFKSVLPVVLLNTLRKCYPQFAERDSQGGFYKQQDAEELFTQLFHSMSIVFGDKFSEDFRIQFKTTIKDTANDNDITVKENESDSKLQCHISGTTNFMRNGLLEGLNEKIEKRSDLTGANSIYSVEKKISRLPKFLTVQYVRFFWKRSTNKKSKILRKVVFPFQLDVADMLTPEYAAEKVKVRDELRKVEKEKNEKEREIKRRKFDPSSSENVMTPREQYETQVALNESEKDQWLEEYKKHFPPNLEKGENPSCVYNLIGVITHQGANSESGHYQAFIRDELDENKWYKFNDDKVSVVEKEKIESLAGGGESDSALILMYKGFGL,soluble
19,LTPILGYGRVRAKVSADIDFTSYEQTQELFNPELSALRSEQTMQESRNASNEASGVPGTLSNTPQPNSSLGQKNNPQQNATPNNLPQQTSSDQMQAKDVRMQTTKNFELDKTISHTKNQPGTIKRLSVAVLVDNRPVMNDKTKKLEKKPLTKEEIEQIKLLVSDAIGLNVKRGDSLNVINSSF,not soluble
